What was measured:
[1] = target: S2P.BA5.VI-1147 A570C/N967C (I1) (SARS CoV-2 omicron BA.5); experiment: cross-linking
[2] = target: S2P.BA5.VI-1147 D571C/N967C (D17) (SARS CoV-2 omicron BA.5); experiment: cross-linking

Substance | stoichiometry N [1] | stoichiometry N [2]
S2P.BA5.VI-1147 A570C/N967C (I1) (domain or fragment) | 3 | –
S2P.BA5.VI-1147 D571C/N967C (D17) (domain or fragment) | – | 3

Source: publication doi:10.1101/2025.09.14.676173
